# Biological target: Biotinylated calmodulin (UniProt P62157)
# Test: film bulk acoustic resonator (FBAR); biotinylated calmodulin immobilised on Neutravidin adsorbed on the gold sensor surface (190 ng/cm^2 shown; qualitatively the same at all surface concentrations); peptide injected in flow, 10 µL/min; 10 mM HEPES-NaOH, pH 7.2, 100 mM NaCl, 1 mM CaCl2; resonant frequency and motional resistance monitored; peptide concentration not given
substance,measurement,value
Ca2+/calmodulin kinase II inhibitor (CaMKII 281-309) (from UniProt P11275 281-309) (peptide),resonant frequency shift at saturation,-1.4 MHz

# Reference: article PMC4264349
